In patent US20250019426A1 (UCT BIOSCIENCE, published 2025):

Tests used:
[1] = target: T1, recombinant GRP78 protein (human, UniProt P11021 19-650, limits assumed); experiment: Biacore SPR, multi-cycle kinetics, GRP78 amine-coupled to the chip, G2D03 as analyte 0.625-10 nM, 1:1 fit
T1 construct: also called HSPA5/GRP78 (Active Protein) Human Protein (ORIGENE, Cat. No. AR03021PU-L); glucose-regulated protein 78
From the text: (§1) This ligand has the optimum pH 4.0 condition for direct immobilization by pH scouting test. With amine coupling method, carboxyl groups on the surface of the sensor chip surface are first activated with a mixture of EDC and NHS to give reactive succinimide esters. GRP78 is then passed over the surface and the esters react with primary amine groups to link the ligand covalently to the dextran matrix. The target level of the GRP78 protein is about 300 RU.
(§2) For the multi-cycle kinetics analysis, the chip surface level is 291.2 RU and the analyte concentration is used for the moderate Rₘₐₓ, which is running through the conditions in the assay. The concentrations of the anti-GRP78 antibody G2D03 are: 0.625 nM, 1.25 nM, 2.5 nM, 5 nM and 10 nM. Set the flow rate at 30 μL/min. Association time is 120 seconds. Dissociation time is 360 seconds. Regeneration buffer is performed using 10 mM glycine-HCl pH 1.7. […] The binding affinity of the anti-GRP78 antibody G2D03 is better than the conventional anti-GRP78 antibody C38.

[2] = target: T1, recombinant GRP78 protein; experiment: Biacore SPR, multi-cycle kinetics, GRP78 amine-coupled to the chip, G2D03 as analyte 0.625-10 nM, 1:1 fit, kd/ka
From the text: as §1, §2

T1 sequence (P11021 19-650 limits assumed): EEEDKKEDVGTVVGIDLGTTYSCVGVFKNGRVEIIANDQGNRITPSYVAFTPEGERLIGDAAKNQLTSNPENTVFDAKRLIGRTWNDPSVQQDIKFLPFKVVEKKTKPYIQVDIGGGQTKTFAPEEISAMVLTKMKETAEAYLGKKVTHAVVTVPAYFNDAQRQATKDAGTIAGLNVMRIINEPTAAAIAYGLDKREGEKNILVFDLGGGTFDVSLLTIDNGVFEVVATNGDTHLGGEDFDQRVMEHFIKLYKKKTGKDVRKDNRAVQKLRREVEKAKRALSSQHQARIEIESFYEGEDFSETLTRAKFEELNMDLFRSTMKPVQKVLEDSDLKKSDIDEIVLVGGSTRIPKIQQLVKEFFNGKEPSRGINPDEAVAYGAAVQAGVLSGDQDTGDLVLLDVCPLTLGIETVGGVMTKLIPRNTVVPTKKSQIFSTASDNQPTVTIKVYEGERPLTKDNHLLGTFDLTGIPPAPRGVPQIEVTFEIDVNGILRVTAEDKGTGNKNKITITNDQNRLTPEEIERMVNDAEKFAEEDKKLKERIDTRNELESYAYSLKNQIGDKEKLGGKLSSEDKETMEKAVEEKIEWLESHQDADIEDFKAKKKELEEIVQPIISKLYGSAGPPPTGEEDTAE

koff [1]: 0.000254 s⁻¹ | kon [1]: 3.42e+06 M⁻¹ s⁻¹ | Kd [2]: 0.0744 nM
B1: anti-GRP78 antibody G2D03 (antibody, V domains shown)
VH: EVQLVESGGGLVQPGGSLRLSCAASGFTFSQYAMAWVRQAPGKGLEWVSGISPYGSNTRYADSVKGRFTISRDNSKNTLYLQMNSLRAEDTAVYYCARNGGYSYTWFDLWGQGTLVTVSS
VL: DIQMTQSPSSLSASVGDRVTITCRASQSISSDLAWYQQKPGKAPKLLIYWASKLQSGVPSRFSGSGSGTDFTLTISSLQPEDFATYYCMQMYNTPPTFGQGTKVEIKR
notes: Detected with anti-human IgG; also called G2D03 mAb; anti-GRP78 monoclonal antibody (G2D03)
